Blank lines part the entries; values can stand above or below the binder they belong to.
Tests used:
Settings in all cases: both partners purified
[1] = biological target: T1, CPSF160–WDR33 (CPSF160 coexpressed with TwinStrep3C-WDR33 residues 1–413-FLAG) (human, UniProt Q10570 1-1443; Q9C0J8 1-413); assay: pull-down; FLAG pull-down on α-FLAG M2 Protein G Dynabeads; FLAG-tagged WDR33 (CPSF160–WDR33) 1.5 µM as bait, PAPOAC 15 µM; 20 mM HEPES-NaOH pH 7.5, 150 mM NaCl, 0.01% NP-40 substitute, no MgCl2, 4°C; Coomassie-stained SDS-PAGE
T1 construct: human CPSF160 (mPSF subunit); human WDR33 (mPSF subunit), residues 1-413; A 3C site follows the TwinStrep tag; no cleavage step is described; also called FLAG-tagged WDR33; source: Sf9, baculovirus coexpression, purified (StrepTactin XT, MonoQ, Superdex 200); not shown: FLAG, C-terminal, kept

[2] = biological target: T2, PAPOA structured core (His8-3C-PAPOA residues 1–513-FLAG), wild type (human, UniProt P51003 1-513); assay: pull-down; FLAG pull-down on α-FLAG M2 Protein G Dynabeads; FLAG-tagged PAPOA core 2.5 µM as bait, PAPOAC 100 µM (40× excess); 20 mM HEPES-NaOH pH 7.5, 50 mM NaCl, 5 mM MgCl2, 0.01% NP-40 substitute, 4°C; Coomassie-stained SDS-PAGE
T2 construct: A 3C site lies between His8 and PAPOA; no cleavage step is described in the purification; also called PAPOA core; PAPOA_(1–513); source: E. coli BL21 STAR (DE3) pRARE, purified (Talon, HiTrap Heparin, Superdex 200); not shown: FLAG, C-terminal, kept

[3] = biological target: T2, PAPOA structured core (His8-3C-PAPOA …); assay: pull-down; FLAG pull-down on α-FLAG M2 Protein G Dynabeads; FLAG-tagged PAPOA core 2.5 µM as bait, FIP1 25 µM (10× excess); 20 mM HEPES-NaOH pH 7.5, 150 mM NaCl, 5 mM MgCl2, 0.01% NP-40 substitute, 4°C; Coomassie-stained SDS-PAGE

T2 sequence (P51003 1-513): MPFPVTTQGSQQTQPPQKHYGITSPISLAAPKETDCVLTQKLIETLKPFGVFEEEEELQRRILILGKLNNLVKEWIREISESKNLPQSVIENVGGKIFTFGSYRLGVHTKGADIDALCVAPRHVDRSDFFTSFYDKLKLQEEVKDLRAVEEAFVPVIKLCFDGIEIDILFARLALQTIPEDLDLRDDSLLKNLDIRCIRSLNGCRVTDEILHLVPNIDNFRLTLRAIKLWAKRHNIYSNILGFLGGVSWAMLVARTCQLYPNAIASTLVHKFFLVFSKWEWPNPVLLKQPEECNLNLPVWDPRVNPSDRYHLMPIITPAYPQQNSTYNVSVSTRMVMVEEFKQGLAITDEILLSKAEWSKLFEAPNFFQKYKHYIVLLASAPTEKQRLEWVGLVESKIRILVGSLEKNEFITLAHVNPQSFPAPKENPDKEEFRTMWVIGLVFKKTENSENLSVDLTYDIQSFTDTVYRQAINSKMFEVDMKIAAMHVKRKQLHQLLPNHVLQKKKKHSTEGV
T1 sequence (Q10570 whole entry, chain 1 of 2, the tested form may be a part): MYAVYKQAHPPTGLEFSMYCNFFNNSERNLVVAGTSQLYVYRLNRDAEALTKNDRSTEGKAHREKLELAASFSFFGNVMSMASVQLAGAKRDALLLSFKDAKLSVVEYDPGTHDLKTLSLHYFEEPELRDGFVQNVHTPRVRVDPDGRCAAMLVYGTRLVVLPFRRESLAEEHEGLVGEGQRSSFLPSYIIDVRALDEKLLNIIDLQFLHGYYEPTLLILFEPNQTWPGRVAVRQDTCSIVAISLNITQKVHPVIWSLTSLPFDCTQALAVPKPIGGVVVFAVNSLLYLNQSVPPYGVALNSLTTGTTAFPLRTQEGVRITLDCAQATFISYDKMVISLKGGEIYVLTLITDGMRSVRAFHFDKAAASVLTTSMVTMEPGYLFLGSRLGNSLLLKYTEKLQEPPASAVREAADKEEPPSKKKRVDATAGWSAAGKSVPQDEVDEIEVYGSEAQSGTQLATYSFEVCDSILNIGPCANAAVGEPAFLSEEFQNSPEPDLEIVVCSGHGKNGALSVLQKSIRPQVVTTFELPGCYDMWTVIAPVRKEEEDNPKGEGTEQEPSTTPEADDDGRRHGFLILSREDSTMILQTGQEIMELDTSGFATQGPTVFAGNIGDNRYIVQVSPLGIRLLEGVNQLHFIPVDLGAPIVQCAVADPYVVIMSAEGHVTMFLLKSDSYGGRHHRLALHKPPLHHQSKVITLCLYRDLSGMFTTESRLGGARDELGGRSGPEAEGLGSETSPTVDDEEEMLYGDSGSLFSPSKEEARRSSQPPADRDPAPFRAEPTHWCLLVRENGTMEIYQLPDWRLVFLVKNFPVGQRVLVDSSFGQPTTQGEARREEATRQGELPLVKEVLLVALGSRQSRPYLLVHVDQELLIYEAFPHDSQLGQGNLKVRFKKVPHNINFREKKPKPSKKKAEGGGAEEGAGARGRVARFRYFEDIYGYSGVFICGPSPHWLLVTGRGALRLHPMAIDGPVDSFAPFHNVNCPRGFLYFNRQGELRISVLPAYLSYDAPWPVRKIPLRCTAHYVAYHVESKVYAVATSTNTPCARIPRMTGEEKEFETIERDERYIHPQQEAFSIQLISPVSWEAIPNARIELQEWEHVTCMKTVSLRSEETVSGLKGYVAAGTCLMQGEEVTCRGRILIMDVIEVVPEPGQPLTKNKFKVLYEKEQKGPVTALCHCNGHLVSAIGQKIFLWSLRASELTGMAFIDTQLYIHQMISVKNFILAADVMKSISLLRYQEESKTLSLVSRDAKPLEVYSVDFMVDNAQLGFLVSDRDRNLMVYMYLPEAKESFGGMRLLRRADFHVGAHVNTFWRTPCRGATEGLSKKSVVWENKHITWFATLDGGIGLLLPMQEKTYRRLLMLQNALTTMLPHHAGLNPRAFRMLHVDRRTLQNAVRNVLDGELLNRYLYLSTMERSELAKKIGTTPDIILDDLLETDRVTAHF
T1 sequence (Q9C0J8 1-413, chain 2 of 2): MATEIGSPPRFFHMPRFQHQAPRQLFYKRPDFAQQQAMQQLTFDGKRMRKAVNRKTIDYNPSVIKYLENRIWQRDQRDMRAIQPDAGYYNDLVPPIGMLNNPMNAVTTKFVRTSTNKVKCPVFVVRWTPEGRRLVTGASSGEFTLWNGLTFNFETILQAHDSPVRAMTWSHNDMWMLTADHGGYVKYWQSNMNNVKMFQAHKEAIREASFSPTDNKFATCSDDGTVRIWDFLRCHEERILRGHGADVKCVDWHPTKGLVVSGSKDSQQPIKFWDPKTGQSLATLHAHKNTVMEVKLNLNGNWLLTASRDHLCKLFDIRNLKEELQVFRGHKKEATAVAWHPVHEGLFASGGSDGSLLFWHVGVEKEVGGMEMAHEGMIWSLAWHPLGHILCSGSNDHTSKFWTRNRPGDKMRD

- binding result [1]: binds
- binding result [2]: binds
B1: minimal PAPOAC construct (His6-MBP-3C-PAPOA residues 720–745), wild type (peptide)
chain: DLSDIPALPANPIPVIKNSIKLRLNR
notes: human poly(A) polymerase alpha (PAPOA), C-terminal motif, residues 720-745; A 3C site follows MBP; no cleavage step is described in the purification; also called PAPOA C terminus; PAPOAC peptide; source: E. coli BL21 STAR (DE3) pRARE, purified (Amylose resin, Superdex 200)

- binding result [3]: binds
B2: minimal FIP1 construct (His6-MBP-3C-FIP1 residues 80–113), wild type (peptide, UniProt Q6UN15 80-113, looked up)
chain: ETEDDSDSDSDDDEDDVHVTIGDIKTGAPQYGSY
notes: A 3C site follows MBP; no cleavage step is described in the purification; also called minimal FIP1 peptide; source: E. coli BL21 STAR (DE3) pRARE, purified (Amylose resin, Superdex 200)

From PMC11182016, “Molecular basis of human poly(A) polymerase recruitment by mPSF” (RNA, 2024)
